Reference: patent US20100035363A1 (TIBOTEC PHARMACEUTICALS, published 2010)

Assays:
biotin-labeled RSV-IQN51 = biological target: T1, biotin-labeled RSV-IQN51 (Respiratory Syncytial Virus (F1 part), biotin label (position not stated in the example); captured on streptavidin-allophycocyanin in the assay); assay: time-resolved FRET competition, IQN51-APC/C39-Eu assay; competitor C39-Eu
T1 construct: Synthetic peptide; In the assay it was pre-mixed with streptavidin-APC (final 100 nM IQN51-biotin, 10 nM streptavidin-APC); also called IQN51-biotin; IQN51-APC

biotin-labeled RSV-IQN57 = biological target: T2, biotin-labeled RSV-IQN57 (Respiratory Syncytial Virus (F1 part), biotin label (position not stated in the example); captured on streptavidin-allophycocyanin in the assay); assay: time-resolved FRET competition, IQN57-APC/C45-Eu assay; competitor C45-Eu
T2 construct: Synthetic peptide; In the assay it was pre-mixed with streptavidin-APC (final 100 nM IQN57-biotin, 10 nM streptavidin-APC); also called IQN57-biotin; IQN57-APC
T2 peptide: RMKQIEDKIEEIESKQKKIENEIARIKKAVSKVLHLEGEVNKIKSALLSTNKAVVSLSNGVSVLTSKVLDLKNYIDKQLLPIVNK

Binder: NFYDPLVFPSDEFDASISQVNEKINQSLAFIRKSDELLHNVNAGK [RSV-C45]
- IC50 (biotin-labeled RSV-IQN51): 76 nM
- IC50 (biotin-labeled RSV-IQN57): 74 nM

Binder: VFPSDEFDASISQVNEKINQSLAFIRKSDELLHNVNAGK [RSV-C39]
- IC50 (biotin-labeled RSV-IQN51): 76 nM
- IC50 (biotin-labeled RSV-IQN57): 64 nM
